Source: patent US20240228595A1

Target: SARS-COV-2 RBD-his tag protein (Sino Biological) (SARS-CoV-2) (UniProt P0DTC2)
Assay: ELISA, SARS-CoV-2-WA-1 RBD coated, antibody titrated

## S309 (Sotrovimab) (antibody)
  EC50: 2 ng/mL
